According to publication PMC8326573:

Target: C. trachomatis PmpD fragment D^269–918, His-tagged (C. trachomatis serovar E) (UniProt O84818)
Assay: native gel or EMSA; Blue Native-PAGE (Native PAGE Novex 3–12% Bis-Tris), 1 μg of each renatured His-tagged Pmp fragment alone; Coomassie staining and anti-His immunoblot

In the case of “C. trachomatis PmpD fragment D^269–918, His-tagged (from UniProt O84818 269-918) (domain or fragment)”, the stoichiometry N is reported as 2.
